Experimental data published in US20220144960A1 (NANJING LEGEND BIOTECH, published 2022).
Read-outs that look alike come from different tables or passages of the source.

T1: CD30 on CD30-expressing tumor cell lines (HH, MJ, H9) (UniProt P28908 19-595)
T1 sequence (looked up): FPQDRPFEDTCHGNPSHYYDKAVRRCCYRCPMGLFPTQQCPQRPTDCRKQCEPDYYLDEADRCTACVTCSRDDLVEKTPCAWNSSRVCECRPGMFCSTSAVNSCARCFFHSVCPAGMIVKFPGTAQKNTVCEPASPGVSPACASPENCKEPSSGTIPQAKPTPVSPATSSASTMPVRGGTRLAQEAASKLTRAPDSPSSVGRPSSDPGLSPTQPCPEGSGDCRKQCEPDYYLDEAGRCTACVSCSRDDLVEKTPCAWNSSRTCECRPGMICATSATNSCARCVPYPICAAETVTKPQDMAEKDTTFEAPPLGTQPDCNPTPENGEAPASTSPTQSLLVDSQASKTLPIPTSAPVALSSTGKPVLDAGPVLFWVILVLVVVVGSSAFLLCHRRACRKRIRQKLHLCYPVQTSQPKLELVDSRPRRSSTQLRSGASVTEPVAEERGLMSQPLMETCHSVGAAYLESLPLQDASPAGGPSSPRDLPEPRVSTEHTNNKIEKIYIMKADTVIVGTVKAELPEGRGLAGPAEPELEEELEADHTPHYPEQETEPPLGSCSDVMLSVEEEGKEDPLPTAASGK


How the values were obtained:
Test in all cases: cell-based or functional assay
[1] = biological target: T1, CD30 on CD30-expressing tumor cell …
[2] = biological target: T1, CD30 on CD30-expressing tumor cell …; remark: listed apart in the source
[3] = biological target: T1, CD30 on CD30-expressing tumor cell …; remark: listed apart in the source
[4] = biological target: T1, CD30 on CD30-expressing tumor cell …; remark: listed apart in the source
[5] = biological target: T1, CD30 on CD30-expressing tumor cell …; remark: listed apart in the source

% H9 cell lysis E:T = 5:1 (LDH assay, CAR T cells) [1] [%] | % MJ cell lysis E:T = 1:1 (LDH assay, CAR T cells) [1] [%] | % MJ cell lysis E:T = 0.5:1 (LDH assay, CAR T cells) [3] [%] | Binder | further results
64 | 58.5 | 58.4 | AS48542bbz CAR (other) QMQLVESGGGSVQAGETLRLSCTTSAFTFDGPDMAWYRQAPGNECVLVSIISADGRTYYADSVKGRFTISRDNAKNTVFLNLNSLQPEDTAVYYCALDPRKNCRGGYCCANWGPGTQVTVSSTTTPAPRPPTPAPTIASQPLSLRPEACRPAAGGAVHTRGLDFACDIYIWAPLAGTCGVLLLSLVITLYCKRGRKKLLYIFKQPFMRPVQTTQEEDGCSCRFPEEEEGGCELRVKFSRSADAPAYKQGQNQLYNELNLGRREEYDVLDKRRGRDPEMGGKPRRKNPQEGLYNELQKDKMAEAYSEIGMKGERRRGKGHDGLYQGLSTATKDTYDALHMQALPPR | % H9 cell lysis E:T = 2:1 (LDH assay, CAR T cells) [2]: 50%; % MJ cell lysis E:T = 1:1 (LDH assay, CAR T cells) [2]: 55%
84 | 64.3 |  | AS48542dil-bbz CAR (other) QMQLVESGGGSVQAGETLRLSCTTSAFTFDGPDMAWYRQAPGNECVLVSIISADGRTYYADSVKGRFTISRDNAKNTVFLNLNSLQPEDTAVYYCALDPRKNCRGGYCCANWGPGTQVTVSSGGGGSGGGGSGGGGSQMQLVESGGGSVQAGETLRLSCTTSAFTFDGPDMAWYRQAPGNECVLVSIISADGRTYYADSVKGRFTISRDNAKNTVFLNLNSLQPEDTAVYYCALDPRKNCRGGYCCANWGPGTQVTVSSTTTPAPRPPTPAPTIASQPLSLRPEACRPAAGGAVHTRGLDFACDIYIWAPLAGTCGVLLLSLVITLYCKRGRKKLLYIFKQPFMRPVQTTQEEDGCSCRFPEEEEGGCELRVKFSRSADAPAYKQGQNQLYNELNLGRREEYDVLDKRRGRDPEMGGKPRRKNPQEGLYNELQKDKMAEAYSEIGMKGERRRGKGHDGLYQGLSTATKDTYDALHMQALPPR | 
 |  | 29.9 | 5F11bbz CAR (other) DIQMTQSPTSLSASVGDRVTITCRASQGISSWLTWYQQKPEKAPKSLIYAASSLQSGVPSRFSGSGSGTDFTLTISSLQPEDFATYYCQQYDSYPITFGQGTRLEIKGSTSGSGKPGSGEGSTKGQVQLQQWGAGLLKPSETLSLTCAVYGGSFSAYYWSWIRQPPGKGLEWIGDINHGGGTNYNPSLKSRVTISVDTSKNQFSLKLNSVTAADTAVYYCASLTAYWGQGSLVTVSSTTTPAPRPPTPAPTIASQPLSLRPEACRPAAGGAVHTRGLDFACDIYIWAPLAGTCGVLLLSLVITLYCKRGRKKLLYIFKQPFMRPVQTTQEEDGCSCRFPEEEEGGCELRVKFSRSADAPAYKQGQNQLYNELNLGRREEYDVLDKRRGRDPEMGGKPRRKNPQEGLYNELQKDKMAEAYSEIGMKGERRRGKGHDGLYQGLSTATKDTYDALHMQALPPR | % H9 cell lysis E:T = 0.2:1 (FACS method, CAR T cells) [4]: 16%; % MJ cell lysis E:T = 0.2:1 (FACS method, CAR T cells) [4]: 2.3%; % H9 cell lysis E:T = 2:1 (LDH assay, CAR T cells) [2]: 45%; % MJ cell lysis E:T = 1:1 (LDH assay, CAR T cells) [2]: 41%; % H9 cell lysis E:T = 2:1 (LDH assay, CAR T cells) [5]: 45%; % MJ cell lysis E:T = 1:1 (LDH assay, CAR T cells) [5]: 41%
 |  | 42 | AS57659bbz CAR (other) DIQMTQSPSSLSASVGDRVTITCRASQSVSSAVAWYQQKPGKAPKLLIYSASSLYSGVPSRFSGSRSGTDFTLTISSLQPEDFATYYCQQPYYLITFGQGTKVEIKGGGGSGGGGSGGGGSEVQLVESGGGLVQPGGSLRLSCAASGFNIYSYYIHWVRQAPGKGLEWVASIYSSYSSTYYADSVKGRFTISADTSKNTAYLQMNSLRAEDTAVYYCARSWFSYPGLDYWGQGTLVTVSSTTTPAPRPPTPAPTIASQPLSLRPEACRPAAGGAVHTRGLDFACDIYIWAPLAGTCGVLLLSLVITLYCKRGRKKLLYIFKQPFMRPVQTTQEEDGCSCRFPEEEEGGCELRVKFSRSADAPAYKQGQNQLYNELNLGRREEYDVLDKRRGRDPEMGGKPRRKNPQEGLYNELQKDKMAEAYSEIGMKGERRRGKGHDGLYQGLSTATKDTYDALHMQALPPR | 
 |  | 45.1 | AS48481bbz CAR (other) EVQLVASGGGSVQAGETLRLSCTASGFTFADSAMGWYRKGPGNVCDLVAIIRTDGTTYYGDSAKGRFTISRDNAKSTLYLQMNSLKPEDTAVYFCAADRETSFIGGSWCVAKYWDQGTQVTVSSTTTPAPRPPTPAPTIASQPLSLRPEACRPAAGGAVHTRGLDFACDIYIWAPLAGTCGVLLLSLVITLYCKRGRKKLLYIFKQPFMRPVQTTQEEDGCSCRFPEEEEGGCELRVKFSRSADAPAYKQGQNQLYNELNLGRREEYDVLDKRRGRDPEMGGKPRRKNPQEGLYNELQKDKMAEAYSEIGMKGERRRGKGHDGLYQGLSTATKDTYDALHMQALPPR | 

The next lines start with the binder.

Binder | % H9 cell lysis E:T = 5:1 (LDH assay, CAR T cells) [1] [%] | % MJ cell lysis E:T = 1:1 (LDH assay, CAR T cells) [1] [%] | % MJ cell lysis E:T = 0.5:1 (LDH assay, CAR T cells) [3] [%] | further results
AS48463bbz CAR (other) QVHLMESGGGSVQAGETLRLSCTASGFTFANSDMGWYRQAPGNACELVSIISSHGGTTYYVDSVKGRFTISRHNAENTVYLRMTSLKPEDTALYYCVADPRSNCRGGYCCGYWGPGTQVTVSSTTTPAPRPPTPAPTIASQPLSLRPEACRPAAGGAVHTRGLDFACDIYIWAPLAGTCGVLLLSLVITLYCKRGRKKLLYIFKQPFMRPVQTTQEEDGCSCRFPEEEEGGCELRVKFSRSADAPAYKQGQNQLYNELNLGRREEYDVLDKRRGRDPEMGGKPRRKNPQEGLYNELQKDKMAEAYSEIGMKGERRRGKGHDGLYQGLSTATKDTYDALHMQALPPR |  |  | 60.8 | 
AS53574-AS48542bil-bbz CAR (other) QVKLVESGGGSVQAGGSLRLSCAASGYIYSSNCMGWFRQAPGKEREWVARIHTGSGSTYYADSVKGRFTISQDNAKNTVYLQMNSLRPEDTAMYDCAAGRVVLGAVVCTNEYWGQGTQVTVSSGGGGSGGGGSGGGGSQMQLVESGGGSVQAGETLRLSCTTSAFTFDGPDMAWYRQAPGNECVLVSIISADGRTYYADSVKGRFTISRDNAKNTVFLNLNSLQPEDTAVYYCALDPRKNCRGGYCCANWGPGTQVTVSSTTTPAPRPPTPAPTIASQPLSLRPEACRPAAGGAVHTRGLDFACDIYIWAPLAGTCGVLLLSLVITLYCKRGRKKLLYIFKQPFMRPVQTTQEEDGCSCRFPEEEEGGCELRVKFSRSADAPAYKQGQNQLYNELNLGRREEYDVLDKRRGRDPEMGGKPRRKNPQEGLYNELQKDKMAEAYSEIGMKGERRRGKGHDGLYQGLSTATKDTYDALHMQALPPR | 54 | 60.5 |  | 
AS48542dis-bbz CAR (other) QMQLVESGGGSVQAGETLRLSCTTSAFTFDGPDMAWYRQAPGNECVLVSIISADGRTYYADSVKGRFTISRDNAKNTVFLNLNSLQPEDTAVYYCALDPRKNCRGGYCCANWGPGTQVTVSSGGGGSQMQLVESGGGSVQAGETLRLSCTTSAFTFDGPDMAWYRQAPGNECVLVSIISADGRTYYADSVKGRFTISRDNAKNTVFLNLNSLQPEDTAVYYCALDPRKNCRGGYCCANWGPGTQVTVSSTTTPAPRPPTPAPTIASQPLSLRPEACRPAAGGAVHTRGLDFACDIYIWAPLAGTCGVLLLSLVITLYCKRGRKKLLYIFKQPFMRPVQTTQEEDGCSCRFPEEEEGGCELRVKFSRSADAPAYKQGQNQLYNELNLGRREEYDVLDKRRGRDPEMGGKPRRKNPQEGLYNELQKDKMAEAYSEIGMKGERRRGKGHDGLYQGLSTATKDTYDALHMQALPPR | 81 | 56.4 |  | 
AS48433bbz CAR (other) QIQLVESGGGSVQAGETLRLSCTASGSTFGDSDMGWYRQAPGNACELVSIISSDGRTYYVDSVKGRFTISQDNAVSTVYLQMNSLNPEDTGVYYCAADLRLNCRDGRCCGYWGQGTQVTVSSTTTPAPRPPTPAPTIASQPLSLRPEACRPAAGGAVHTRGLDFACDIYIWAPLAGTCGVLLLSLVITLYCKRGRKKLLYIFKQPFMRPVQTTQEEDGCSCRFPEEEEGGCELRVKFSRSADAPAYKQGQNQLYNELNLGRREEYDVLDKRRGRDPEMGGKPRRKNPQEGLYNELQKDKMAEAYSEIGMKGERRRGKGHDGLYQGLSTATKDTYDALHMQALPPR |  |  | 50.5 | 
